Consider one molecule from US20110213337A1 (BOARD OF TRUSTEES OF THE UNIVERSITY OF ARKANSAS, published 2011).

For this experiment, the target named is T1, HLA A2.1 (A*0201) (human).
T1 construct: whole, on cells; Endogenous HLA class I molecule of T2 cells and of EBV-transformed LCL; also called HLA A0201
Put plainly: T2 cell HLA A2.1 stabilisation assay, flow cytometry. An excerpt:
This technique employs T2 cells which are peptide transporter-deficient and thus express low endogenous HLA class I levels due to inability to load peptide and stabilize HLA class I folding for surface expression.
A general note: A flow cytometer gives signals particle by particle.

B1: Hepsin peptide 170-178 (peptide)
peptide: SLGRWPWQV
notes: Synthesized peptide added to T2 cells or loaded onto LCL; also called hepsin 170-178
For the molecule B1, the binding result was “binds”.
